This note sets out measurements from the supplement of paper PMC9170038.

This data set concerns MS2 coat protein. Nature of the data set: apparent KD of MS2 coat protein; designed switch direction (-1 OFF switch, 1 ON switch): -1; higher = weaker reporter binding. In outline:
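Apparent KD, taken as the median over clusters for each design, was obtained by curve-fitting normalised cluster fluorescence. Designed RNA switches had been transcribed on Illumina chips by stalled E. coli RNA polymerase and titrated with SNAP-549-labelled MS2 coat protein, doubling from 0.7 or 1.5 nM to 3 µM.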

Where [1] appears, read: Eterna round: R95, input ligand: FMN 200 uM.
Where [2] appears, read: Eterna round: R95, input ligand: microRNA oligo, concentration not stated.
Setting [3] is: Eterna round: R95, input ligand: none.
Setting [4] is: input ligand: microRNA oligo, concentration not stated.

On to “GUGAAGAAGUUAGUGGCCUACAUGAGGAUCACCCAUGUGAGGGAAAUGUCGAGGCGGAGGUUGUGUGCUCGUCUGUA [JR_SV3TOV1_Sub041] (puzzle: Sensor v3, turn-off variant 1)”, for which the “apparent KD of MS2 coat protein” value is, setting by setting: under setting [1], 25.7 nM; under setting [2], 27.6 nM; under setting [3], 26.4 nM. As for “GUGAAGUGAGGAUAUACGAGAGAGGCUGAACCUGGAGAGAAGUAGAAGGCACAUGAGGAUCACCCAUGUAAGGA [JR_Exclu4_Sub020] (puzzle: Exclusion 4)”, the “apparent KD of MS2 coat protein” value is 36.7 nM under setting [1], 36.1 nM under setting [2] and 34.4 nM under setting [3]. On to “GUGAGGUAAGGAUAUAGGAGAAAAGAUAAGGUAUGAGAGUUCUAGAAGGUACAUGAGGAUCACCCAUGUUAGGG [JR_Exclu4_Sub086] (puzzle: Exclusion 4)”, for which the “apparent KD of MS2 coat protein” value under setting [2] worked out at 257 nM. Consider “GUGAUCUAUCAUGGGAUAAACAUGAGGAUCACCCAUGUAGACAAGUUUUUUGCUCGUCUUAUAAUAAGAUAGAUCAC [Antenna 1 - Jieux - Sensor, turn-off variant 1] (Eterna round: R97, puzzle: Sensor, turn-off variant 1)”, for which the “apparent KD of MS2 coat protein” value by setting is: (input ligand: FMN 200 uM) 37.2 nM; (input ligand: none) 39.4 nM. As for “GUGCAAUGAGGAUAUACGUAGGUGAAAAUCUGUGUGCUCCUACAUGAGGAUCACCCAUGUAGAAGGCAUGUCAC [LRO-Excl2-16] (puzzle: Exclusion 2)”, under setting [2], the “apparent KD of MS2 coat protein” value came out at 16 nM.

As for “GUGCAGCGAGGAUAUCCAGACGGGUCCAGUACGUGUCUUGGACUUGAGGAUCACCCAAGUAGAAGGCGUCUCAG [salish99_ex2_r4_611] (Eterna round: R97, puzzle: Exclusion 2)”, the “apparent KD of MS2 coat protein” value (input ligand: FMN 200 uM) worked out at 50.9 nM and the “apparent KD of MS2 coat protein” value (input ligand: none) was found to be 114 nM. In the same order, the values of “GUGCCGCGAGGAUAUACAGACGGGUCCAUUACGUGUCUCGGACUUGAGGAUCACCCAAGUAGAAGGCGUCUCAG [salish99_ex2_r4_625] (Eterna round: R97, puzzle: Exclusion 2)” are 51.3 nM and 40.2 nM.

As to “GUGGCACAUGAGGAUCACCCAUGUCAGGAUAUCGCGUGGUUUUUUUCGGCCGCGCGCGCGAGAAGGGACGUCUU (Eterna round: R96, puzzle: Exclusion 1)”, the “apparent KD of MS2 coat protein” value reads like this: (input ligand: FMN 200 uM) 26.8 nM; under setting [4], 22.2 nM; (input ligand: none) 30.9 nM. Consider “GUGGCACAUGAGGAUCACCCAUGUCAGGAUAUCGCGUGGUUUUUUUCGGCCGCGCGCGCGAGAAGGGACGUCUU (puzzle: Exclusion 1)”, for which the “apparent KD of MS2 coat protein” value under setting [2] is 27.2 nM. In the case of “GUGGGUUACAUGAGGAUCACCCAUGUAUAGUGGGAAAAAAUAUAGGAUAUAAUAUAAAAAUUAUAUUAGAAGGAUAGAGACUAG [AK ExNG3-1] (Eterna round: R96, puzzle: Exclusion NG 3)”, the “apparent KD of MS2 coat protein” value (input ligand: FMN 200 uM) worked out at 419 nM, the “apparent KD of MS2 coat protein” value under setting [4] turned out to be 216 nM and the “apparent KD of MS2 coat protein” value (input ligand: none) came to 418 nM. “GUGGUACAUGAGGAUCACCCAUGUUAGGAUAUCGCGUGAGGUUUUACUUCCGCACACGCGAGAAGGGACGUCUU (puzzle: Exclusion 1)”: the “apparent KD of MS2 coat protein” value under setting [2] came to 41.4 nM.

For “GUGGUACAUGAGGAUCACCCAUGUUAGGAUAUCGCGUGAGGUUUUGCUUCCGCGCGCGCGAGAAGGGACGUCUU (puzzle: Exclusion 1)”, the “apparent KD of MS2 coat protein” value under setting [2] was 23.2 nM.

As to “GUGUAAUGUGAGGAUAUGUGUUUCGUUAGCUGCACAGAAGGCACAACAUGAGGAUCACCCAUGUGGGCAGGGCC [Eternabot (L1) Solution 10] (Eterna round: R97, puzzle: Exclusion 6)”, the “apparent KD of MS2 coat protein” value runs as follows: (input ligand: FMN 200 uM) 59.4 nM; (input ligand: none) 19 nM.

As to “GUGUACAGAGGAUAUGCACGAGUAGUUACGAAAGUAACUAUACAUGAGGAUCACCCAUGUAGAAGGCUGUACAC [Dot plot directed v3] (puzzle: Exclusion 2)”, the “apparent KD of MS2 coat protein” value under setting [2] is 12.2 nM. Take “GUGUAGUAAGGAUAUACAUGAGGAUCACCCAUGUGAGUAAGAUAGAAUAAGAUAAAGUGUAGAAGGUAUAGUGU [Excluse me!!! 16 - Jieux - Exclusion 3] (puzzle: Exclusion 3)”: the “apparent KD of MS2 coat protein” value reads like this: under setting [1], 42.6 nM; under setting [2], 42.8 nM; under setting [3], 48.9 nM. “GUGUAGUCAGGAUAUACAUAGGAAGAUAAUAUAAUAUAAGUACAUGAGGAUCACCCAUGUAGAAGGGACAGUGU [Excluse me!! 9 - Jieux - Exclusion 2] (puzzle: Exclusion 2)”: the “apparent KD of MS2 coat protein” value under setting [2] was found to be 35.6 nM. As for “GUGUGCAGAGGAUAUACAGAGGAAAAUAAUAAAUAAUAUUGACAUGAGGAUCACCCAUGUAGAAGGCUGAGUGU [Excluse me!! 25 - Jieux - Exclusion 2] (puzzle: Exclusion 2)”, the “apparent KD of MS2 coat protein” value is, setting by setting: under setting [1], 38.3 nM; under setting [2], 37.4 nM; under setting [3], 39.7 nM. For the sequence “GUGUUGGUAGGAUAUCCACCGACAAACAUGAGGAUCACCCAUGUGACGCUCCCUUGUCUUGGAGAAGGGCCGGCAU [Riritequla] (puzzle: Exclusion 5)”, the “apparent KD of MS2 coat protein” value under setting [2] stood at 42.4 nM.

As to “GUUAAACAUGAGGAUCACCCAUGUAAGGAUAUGCUGCGGUAGAGAUGAAGUGAAUGCAGCAGAAGGUACAAUUG [Mat - Mod of JL D54] (puzzle: Exclusion 1)”, the “apparent KD of MS2 coat protein” value under setting [2] was found to be 80.5 nM. In the case of “GUUAAACAUGAGGAUCACCCAUGUAAGGAUAUGCUGCGGUCGCGCUGACGUGACUGCAGCAGAAGGUACAAAUG [Mat - Mod of JL D57] (puzzle: Exclusion 1)”, the “apparent KD of MS2 coat protein” value under setting [2] was 76.4 nM. On the same count and under the same terms, to “GUUAAGGUAGGAUAUACGAUAAUAUAGGGUAGAGAUAUAACACAUGAGGAUCACCCAUGUAGAAGGACCAAUUG [Mat - Exclusion 2 - Mod of my Tesla design - D55] (puzzle: Exclusion 2)” belongs 26.2 nM. As for “GUUAAUUGUCACAUGGGUGACAUGAGGAUCACCCAUGUCACAAGCUUUUUGUUCGUCUUAUAAUUAACCCAUGUGAC [Stov1/12-B2] (Eterna round: R97, puzzle: Sensor, turn-off variant 1)”, the “apparent KD of MS2 coat protein” value is 16 nM (input ligand: FMN 200 uM) and 14.4 nM (input ligand: none). Take “GUUAGACAUGAGGAUCACCCAUGUGAGGAUAUGAUGAGAAUGAAGUAAGAAGUAGGAAUCAGAAGGCACAUAUG [Mat - Mod of Hyphema D31] (puzzle: Exclusion 1)”: the “apparent KD of MS2 coat protein” value runs as follows: under setting [1], 177 nM; under setting [2], 106 nM; under setting [3], 132 nM. Take “GUUUUAUAUGAAGGAUAUACUUAACAUGAGGAUCACCCAUGUGGUGUUGUGAGUGAGUGAGUUUAGUAGAAGGUCAAUGAUUUU [JMF's solution 77] (Eterna round: R96, puzzle: Exclusion NG 2)”: the “apparent KD of MS2 coat protein” value is 1660 nM (input ligand: FMN 200 uM), 396 nM under setting [4] and 473 nM (input ligand: none). As for “UAAAACAGAGGAUAUCGCUUGGUAAACAUGAGGAUCACCCAUGUGGUCUCGGUGGAUACCCGAGAAGGCUGAGCGU [Xeraisbece] (Eterna round: R97, puzzle: Exclusion 5)”, the “apparent KD of MS2 coat protein” value (input ligand: FMN 200 uM) was found to be 19.5 nM and the “apparent KD of MS2 coat protein” value (input ligand: none) is 19 nM. For “UAAAACUGAGGAUAUACAUGAGGAUCACCCAUGUCAAUUGACAGCGGCGUGGCAAAAGGUAGAAGGCAGGCGGU [Lerete] (puzzle: Exclusion 3)”, the “apparent KD of MS2 coat protein” value is 43 nM under setting [1], 176 nM under setting [2] and 161 nM under setting [3]. Take “UAAAAGGUAGGAUAUACGAAAAAAAAGGGUAGAAAAAAAACACAUGAGGAUCACCCAUGUAGAAGGACCAAAAA [salish99_ex2_r3_049] (puzzle: Exclusion 2)”: the “apparent KD of MS2 coat protein” value is 137 nM under setting [1], 38.4 nM under setting [2] and 38 nM under setting [3].

“UAAACAAGCUUAAGAUCCUACAUGAGGAUCACCCAUGUGCUCGUCUUGUAACGUACUGUGACGAAAGUCACGGUACG [JL TOV1 3.09] (Eterna round: R97, puzzle: Sensor, turn-off variant 1)”: the “apparent KD of MS2 coat protein” value amounted to 185 nM (input ligand: FMN 200 uM) and 228 nM (input ligand: none). In the same order, the values of “UAAAGUCAAGGAUAUGGAAGUCCAAACAUGAGGAUCACCCAUGUAAACACAUUGGGAAGCCCAGAAGGUGGCCGUA [Eternabot (L2) Solution 31] (Eterna round: R97, puzzle: Exclusion 5)” are 76.4 nM and 204 nM. As to “UAACAGUAAGGAUAUCCAGAUCCAGACAUGAGGAUCACCCAUGUCAAAUACCUUUGACACGGAGAAGGUACGAAAA [EX5 A.26] (Eterna round: R97, puzzle: Exclusion 5)”, the “apparent KD of MS2 coat protein” value by setting is: (input ligand: FMN 200 uM) 53.2 nM; (input ligand: none) 51.9 nM. Consider “UAACUACAUGAGGAUCACCCAUGUCAGGAUAUGCCAUUAAAUUAACAUCAACAUACGGGUAGAAGGGACAACGU [1st #2] (Eterna round: R97, puzzle: Exclusion 1)”, for which the “apparent KD of MS2 coat protein” value by setting is: (input ligand: FMN 200 uM) 22.2 nM; (input ligand: none) 25.6 nM. With “UAACUUCUUGUAAGGAUAUUGGCGCGAAAGCGAACCGAGAAGGUACAUGAGGAUCACCCAUGUGAAAUAAGAAU [Mod of Zala 14 - Jieux - Brourd's Mod of Exclusion 4] (Eterna round: R97, puzzle: Brourd's mod of Exclusion 4)”, the “apparent KD of MS2 coat protein” value worked out at 574 nM (input ligand: FMN 200 uM) and 40.3 nM (input ligand: none).

In the case of “UAAUAGGCAGGAUAUACAUGAGGAUCACCCAUGUAAAUUUUUCGUUUAACUUGAAUGUGUAGAAGGGCCAUAAA [Ex3 #53] (Eterna round: R97, puzzle: Exclusion 3)”, the “apparent KD of MS2 coat protein” value is, setting by setting: (input ligand: FMN 200 uM) 20.6 nM; (input ligand: none) 22.6 nM.
